Laboratory results reported in the domain aggregation screens of Martell et al. (2025).

Test: soluble fraction after stress (log2 fold change); higher = more stays soluble; pooled small domains, quantitative proteomics
Conditions: stress: 75 degC
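Further: 20 min heating vs room temperature control held 20 min.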

Sequence	soluble fraction (log2)
HMVDFVNVVVPVKANYGGEAVVEFLDERLSEFGTEGIYRIELQGETMENPSPDYSQLKAKYHISEIVDRT	0.0718
HMVDKDFKPLYASLERLDSTSIIEILDSNRIDYRIDQRSGALLVDADQIHQARLSLASAGMPA	-0.263
HMVDLANIDPIASSIKLNGAEADASFNTLEDRRVSVSGSFEENKNYTMEYTFKDYAGGSVTGTLDFKTLA	0.36
HMVDLAPTEEIIKNLPNNSRSLLIPTLQKIQNAYRYLPSPAMELLSEFLNVTRAEIYGVISFYPSLL	0.173
HMVDLLDETLIEFYAFANNLIKDLETNSEKYGGMSQFEKELIFNEQITQYQRKLKIDLQDEVG	-1.8
HMVDPRLRSLTPQERRILEHIAEGLTNRQIAEDMFLAEKTVKNYVTSILDKLGMDSRTQAAVYAATHPT	-0.483
HMVDSTDLIPLLIKVSREKQGNKKLNWGEWLKIPENIYLKQINENIARKVFEDTNDLIDEAVNYINRKRRN	-0.963
HMVDTEVFSRLLRKVLAGDVTSAIRILEELIVGGRELSQFVGDFTWYMRNLLLVKTSDNPEEA	-0.463
HMVDYYEILGVSPDASRKDIENAWRKKMREAHPDMGGSEDKAQLLNEAHKVLSDESARAEYDASR	0.181
HMVELPDLIGKSKRLAFTQLEISGLKIGKIIYEPDLAKDAVLKILYNGKIVKAGEQLPRFATVDLVLG	-2.11
HMVEMIGLQMVGKSGIASTVLRPSGKVRIDGVVYDAVSEDGFIEKGQAVKVLRYETGQVYVEKL	-0.727
HMVEPIEESISQLSLLLQSLYEDGKSEVSFEELIRSDRSRVSLFLALLFMAQRGNVYLEQEELFGDLRVKN	0.0329
HMVEREYRLEVPPEAEGKRLDQFLVNQPVQLSRSQVQHLIQNGLVLVNAKTRRSSYRVHTGDIIEMQVPA	0.121
HMVERQVTVPNLTGLGVADAQRLAQSMELDIEVLGEQESTDARPGAVLQQTPGAGTRAAAGSVVSVLV	0.201
HMVEVPEQLRDLLERSIEDLAELSVRSRNSLQKENIQTLGDLVQRTEEEMLGIENFGKKSLTEIAAFL	-0.217
HMVEYFDDENLDAFIGRESDSYTEKEIEQFREILYTMNQKEVADWNRSLTIRGINIPNDLKDEMIMMI	-0.225
HMVEYIENINLSEKQKFIAHEILKEIRGRAIFLRDVGLDYLNLSRKAGTLSGGEAQRIRLATQIGSA	0.198
HMVFKSAQEGLDFYSKQLNDVDATLGRIRRGEESGNGLYGSNRVKNLEEQRKKLDSFVTAYRNAVNAT	0.0212
HMVFTEEEMLEKIKEYLSTNSYINRRAMETLFNLRQSTALKWLGHFTEIGVLRKEGERNYPVYFLNN	-0.972
HMVGADTISDLISQRGRMIGDKPITNAVIKSGSEFSTINALSKAIASGDARTNDVEGMKPVFR	-0.126
HMVGKGASIILDRVNLPQYLEKFNEDGFDTIESLKNLNEIDLKEMGVKKGHIRVILNYLHEEY	-0.421
HMVGLKWYDTGNKKPPIGTEYKNTELSEALKGHDRKEFTWKELDVLGVNITDKEQYIVVGENYYTQV	0.0506
HMVGPAHIGLAVAKDQLPHWERHLTANGVEIEGRMRWDHGGESIYFRDPDAHLLELVTPGIWAN	0.0383
HMVGVDMTVKEEVGKEGVTFTDLRPAGKVEIGNDIYDAVSNTGAFIQKGEKVKIIKYQAGQVYVEKLV	0.00838

Sequence	soluble fraction (log2)
HMVIANADVRAKFSKGKDSFVKYYFKEKVLKDGFTEEVKNNIVQALFYLQIVTRIDGESGVLIIDY	0.123
HMVIDETVLIDLFERLAEDDRPQRVAFRYILALVLLRKRTLQLIGREDEDDGEIWLLRFKGTDGEPIRV	-0.463
HMVIGKHSGSHTLVNDLAKRGITLDKEESATLLEMVRKAAVGLHRSISSDELYGLYKDMKSGQDPFEDS	0.139
HMVINVKEILERIKLVKGFHTQIEIARFLGVSKGTISNWLARNSVDFPLVISKLDGVDLNWLFTGIGMPQ	-3.77
HMVISNDEFEDYLNRATEQLVSELSSGKNPRDAVHDLALTFADQHNKSYDAYQRMADSLEARMHTL	0.0871
HMVITEQTVTVKYLYEDDTEAAPEHSETHKTGETFEIESPKIDGFTPDYELITGTIANDDLVYIVRYKTTP	-0.487
HMVITQVSTTQTDTTFQYHKVKPKETLFSISRLYEVSIDEIKTINPALNSRELMAGELLKLPIK	-1.4
HMVKGIVPNLIGKTQDEAKQMAEEYGFSIGTVSEKASDKPKGTVIEQSPKAGAKASGVTSINIVVSDGS	-0.121
HMVKKYEKVKEYLLERILDGTYVPDLPIPPERELASLLDVNRMTVRRAVEELMYDGYLIRKKGSGTYLTR	-1.6
HMVKLSVGDIVQFAGGPHYVSSSAAKPASSPTAGPAKVTMIYQGAKHPYHIVHTTSASTVWGWVDADKVVK	0.0767
HMVKNLRKLREELGLTQQRLAELTGISKSRIYSYESLDREPDIAGLITLADFFSVSIDYLVGK	-2.66
HMVKPKIILADIGMITETDVTLAKASQAVLIAFNVKPSKEAKKLAEDENIKISTYNIIYEVLDFVKKSMSG	0.304
HMVLALRGIVQGGAEPLVILSDGRTSQSLAVGERFLAYEVVEIGRTGVRLRGPEGEIWLAMASF	-1.2
HMVLANLQAAEQGDLGIKEGEKLTILQTRPDGWWTARNANGETGLVPK	0.186
HMVLFDLSEREKEVLKLLADGNSYKMIASRLEITYFTVNAHLKKIYEKLQVHSASEAVSVALRNSL	-1.19
HMVLIQNEDVKDISNYPLLSSVPVFDVFNNKMIIPTFNKDSFNPLIYNFNFNSKRRLIYRVDNTNYLIVIK	0.0494
HMVLMPIDALRGSSSSSEMRIAAVKFSPSKGWYFSLQERSDEGSSYYEQKVASDGSVSERVKVR	-0.58
HMVLNVMIEEEVHREIIAAISKLPKERRRVVELSMAGFSQEEIAEKMAISVNTVKTIKLRAYRVLRERLKG	-3.78
HMVLPELRLQGLPTAVLRLINRATALADDYRRLMEIAEDGRIDEWEAPEFERISENIQRVIAAGFEVL	0.0637
HMVLQHHTATKALSYHTSASASAAVKGSFARGDSVQVVQGGSQTADGAKWHKVKVGSSYYYAAAEHLTP	≥ 1.04
HMVLTYYSVLGVKTDATTEEIKSTYKQLAIRNHPDRGGSEEVMKMINLAAEILSDPKSRKEYDLSLDA	-2.06
HMVLVLPGEMIHVQVIDEGKEMGQGVGYLDDGTMVVVENGLRHIGRAIDVQVTKVLQTNAGRMIFGQPIL	-1.71
HMVMAELRISVDRLQIGNYIKLPLSWRDHPFLLSSFMIKKEEQIQLIRQLRLKHVFIIPEKSDAPPKPA	-4.2
HMVMNYKKIGKKIADRRILLGITQEELAEKVDSSANYISNIETGIKSGSLIFYIKVANELKLSLDFLFSDE	-3.09

Sequence	soluble fraction (log2)
HMVMPTGRVRYYDAEKGFGFLSKDSGGDDVYVRSSALPAGVTSLKRGQKVEFGIIDGKRGEQALSVHLL	-0.202
HMVMTTVPEVLGMDIRTAASMLTGKNLKYDYDLVESDKPKDEVIEQDQAKGTEVPEGTVVKLKVSKGPA	0.143
HMVMTTVPEVLGMDISKAASLLTGKNLDYDYDLVESDKPKDQVIEQDVVKGTEVPEGTVIHLKVSKGPA	0.258
HMVMVVDVLKALSNNSSDKFFNTSISNAIKAQEDSQEDFVTLFGIEYEKLSPNNGLAVIFTSQ	0.865
HMVNDDTIAATEAEILALLADKHRHHITELNSIRRPYEQIDAALSSLINEEKIFQEDGMLFV	0.543
HMVNGEFIDRIKVILQENNATRKKDRLTKTRMYQLLQEEGYEGSYSAFTYQVRIIEEELGINNK	-2.31
HMVNSIQIHKKLRLDKRAGSDNWYARLTLPNGKRLVKTTKTEDIETAKEVALRLYYEVDARIQNKLPAT	-1.72
HMVPADVQHLRDIVDTMTEKQQLVYKLHVLEGYTFTEIAKLMGTSIPNVKKHYDKAILFIKNNF	-1.79
HMVPEEEATKISVQNVGASDYNFTVKGVQANDPTLTLVRGKTYEFDVTSLGHPFWIKTQKVTGSSSQY	0.354
HMVPLSPRFFDIFRKRKDLTRQNVDVYFRDHPTEITAFERYIKGLVSQSYIPAERADALLLVASQYKAK	-1.58
HMVPSTAVIFTELVSMRSEPATKSPVTHQLTKGTAITINEEKDGWYQVTDQTGNSGWIVKWAVKPTYFTNP	-0.967
HMVPTYEAYVGKEGLVVGTLRPAGTAEFDGERLDVVSEGEYLEAGTRVQIVRTEGRRIVVRKIN	-0.275
HMVPVVGTTIPHEFIGKFGSARVMLKPAVEGSGVIAGGSARAVLELAGYKDIKTKVLGTNNPRNVVYATMN	0.238
HMVQDDDPNSVAKFIDQVIESNPEQVEQYRSGKEKVFNFFLGQTMRLSKGKANPDLVSELLKEKLS	0.0209
HMVQIQDIAFSEFLNELEKGNILDVNIKGDLINGNMLDGKKFKTYAPYDPSLVEKLSKQNVTINVEPVN	0.109
HMVQMKIRAYELEPNDFFIKQNMTYRVMRIQNGMIYAKHLLNSTPITFGAKSMEFVLWTGKYS	-2.21
HMVQQTEEDVIRDMYVEGKIFTIGEEVTDTYTGVTGKIIRRGTNYVTFMSEDGETYKKWLYEIELA	-0.61
HMVRDGDTFVVPKMDRFARNVEDTLHLVRELTERGVIFQMGHTVYDPHDPWSKLFLTFLAAIAEA	0.0785
HMVREVGYNAFLAMLDSGAVKEVARDESEGQITFLATDEKGKERVYKTGIWPDDTLTERLNTAGVEFA	0.351
HMVREVSYDQFLHFVEAKQVGMVYQDGESLMFTLKEDVEKEWGVTAYKTGLWPDANLTDRLLDAGVVFS	-2.32
HMVRGNLAEELLKLREEEGISFQEAGARSGIARSTISQVVNQGLRLKPNQEESLWRVIEEVRGVKER	0.0321
HMVRSEDLIGLQGRITLATDVETRGFVELSVKGSLLRRPALSLKGPLAKNTAVVVTASNDHTLEVEAL	-0.985
